The source of these data is publication PMC2857095.

Substrate in the data set: Nc1ncnc2c1ncn2[C@@H]1O[C@H](COP(=O)(O)OP(=O)(O)OP(=O)(O)O)[C@@H](O)[C@H]1O
Put plainly: purified protein. Particulars: no DNA, 100 mM MgCl2.

B1: MutS (Escherichia coli K-12) (protein)
chain: MSAIENFDAHTPMMQQYLRLKAQHPEILLFYRMGDFYELFYDDAKRASQLLDISLTKRGASAGEPIPMAGIPYHAVENYLAKLVNQGESVAICEQIGDPATSKGPVERKVVRIVTPGTISDEALLQERQDNLLAAIWQDSKGFGYATLDISSGRFRLSEPADRETMAAELQRTNPAELLYAEDFAEMSLIEGRRGLRRRPLWEFEIDTARQQLNLQFGTRDLVGFGVENAPRGLCAAGCLLQYAKDTQRTTLPHIRSITMEREQDSIIMDAATRRNLEITQNLAGGAENTLASVLDCTVTPMGSRMLKRWLHMPVRDTRVLLERQQTIGALQDFTAGLQPVLRQVGDLERILARLALRTARPRDLARMRHAFQQLPELRAQLETVDSAPVQALREKMGEFAELRDLLERAIIDTPPVLVRDGGVIASGYNEELDEWRALADGATDYLERLEVRERERTGLDTLKVGFNAVHGYYIQISRGQSHLAPINYMRRQTLKNAERYIIPELKEYEDKVLTSKGKALALEKQLYEELFDLLLPHLEALQQSASALAELDVLVNLAERAYTLNYTCPTFIDKPGIRITEGRHPVVEQVLNEPFIANPLNLSPQRRMLIITGPNMGGKSTYMRQTALIALMAYIGSYVPAQKVEIGPIDRIFTRVGAADDLASGRSTFMVEMTETANILHNATEYSLVLMDEIGRGTSTYDGLSLAWACAENLANKIKALTLFATHYFELTQLPEKMEGVANVHLDALEHGDTIAFMHSVQDGAASKSYGLAVAALAGVPKEVIKRARQKLRELESISPNAAATQVDGTQMSLLSVPEETSPAVEALENLDPDSLTPRQALEWIYRLKSLV
As usually defined, the Km is the substrate concentration at which the rate is half of its maximum. As a reminder, the kcat is the number of substrate molecules converted per active site and unit of time at saturation. For the protein B1, where the note is “low affinity site”, the Km stood at 6.8 ± 0.6 µM and the kcat came out at 0.0317 ± 0.00067 s⁻¹.

B2: MutS (Escherichia coli K-12; D693N) (protein)
chain: MSAIENFDAHTPMMQQYLRLKAQHPEILLFYRMGDFYELFYDDAKRASQLLDISLTKRGASAGEPIPMAGIPYHAVENYLAKLVNQGESVAICEQIGDPATSKGPVERKVVRIVTPGTISDEALLQERQDNLLAAIWQDSKGFGYATLDISSGRFRLSEPADRETMAAELQRTNPAELLYAEDFAEMSLIEGRRGLRRRPLWEFEIDTARQQLNLQFGTRDLVGFGVENAPRGLCAAGCLLQYAKDTQRTTLPHIRSITMEREQDSIIMDAATRRNLEITQNLAGGAENTLASVLDCTVTPMGSRMLKRWLHMPVRDTRVLLERQQTIGALQDFTAGLQPVLRQVGDLERILARLALRTARPRDLARMRHAFQQLPELRAQLETVDSAPVQALREKMGEFAELRDLLERAIIDTPPVLVRDGGVIASGYNEELDEWRALADGATDYLERLEVRERERTGLDTLKVGFNAVHGYYIQISRGQSHLAPINYMRRQTLKNAERYIIPELKEYEDKVLTSKGKALALEKQLYEELFDLLLPHLEALQQSASALAELDVLVNLAERAYTLNYTCPTFIDKPGIRITEGRHPVVEQVLNEPFIANPLNLSPQRRMLIITGPNMGGKSTYMRQTALIALMAYIGSYVPAQKVEIGPIDRIFTRVGAADDLASGRSTFMVEMTETANILHNATEYSLVLMNEIGRGTSTYDGLSLAWACAENLANKIKALTLFATHYFELTQLPEKMEGVANVHLDALEHGDTIAFMHSVQDGAASKSYGLAVAALAGVPKEVIKRARQKLRELESISPNAAATQVDGTQMSLLSVPEETSPAVEALENLDPDSLTPRQALEWIYRLKSLV
For the protein B2, where the note is “kcat unit not printed beside value”, the Km is 34 µM.
